Assay results published in US20210380675A1 (Kyowa Kirin, published 2021).

Columns and labels:
[1] = target: T1, human IL-36α(R12), truncated (human, UniProt Q9UHA7 6-158); assay: cell-based or functional assay
T1 chain: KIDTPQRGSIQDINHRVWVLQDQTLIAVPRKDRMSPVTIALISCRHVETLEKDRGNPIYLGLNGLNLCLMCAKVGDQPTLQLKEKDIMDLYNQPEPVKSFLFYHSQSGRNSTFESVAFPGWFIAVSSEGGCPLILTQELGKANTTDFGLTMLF

[2] = target: T2, cynomolgus IL-36α, truncated (cynomolgus macaque (Macaca fascicularis), UniProt Q9UHA7 14-158 (human entry), limits assumed); assay: cell-based or functional assay
T2 chain: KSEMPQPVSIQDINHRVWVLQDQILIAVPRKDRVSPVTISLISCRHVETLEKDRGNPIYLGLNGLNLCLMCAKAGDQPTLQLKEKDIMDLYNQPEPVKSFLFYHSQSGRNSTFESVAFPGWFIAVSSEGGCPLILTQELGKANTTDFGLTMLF

human IL-36γ, truncated [3] = target: T3, human IL-36γ, truncated (human, UniProt Q9NZH8 18-169); assay: cell-based or functional assay
T3 sequence: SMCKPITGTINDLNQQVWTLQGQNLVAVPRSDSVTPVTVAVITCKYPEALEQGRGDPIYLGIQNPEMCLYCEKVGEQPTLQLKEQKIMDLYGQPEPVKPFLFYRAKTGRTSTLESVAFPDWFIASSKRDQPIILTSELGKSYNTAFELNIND

[4] = target: T4, cynomolgus IL-36γ, truncated (cynomolgus macaque (Macaca fascicularis), UniProt Q9NZH8 18-167 (human entry), limits assumed); assay: cell-based or functional assay
T4 chain: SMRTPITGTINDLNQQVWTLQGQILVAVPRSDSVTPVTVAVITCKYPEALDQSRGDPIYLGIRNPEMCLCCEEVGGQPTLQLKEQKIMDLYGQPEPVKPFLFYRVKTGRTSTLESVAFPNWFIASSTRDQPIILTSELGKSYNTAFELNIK

[5] = target: T1, human IL-36α(R12), truncated; assay: cell-based or functional assay
human IL-36γ, truncated [6] = target: T3, human IL-36γ, truncated; assay: cell-based or functional assay; remark: listed apart in the source
human IL-36γ, truncated [7] = target: T3, human IL-36γ, truncated; assay: cell-based or functional assay; remark: listed apart in the source
[8] = target: T1, human IL-36α(R12), truncated; assay: SPR, Biacore, 1:1 Langmuir fit
Method: (§1) The humanized antibodies obtained in Example 6 were tested for their binding to recombinant human or cynomolgus macaque IL36a and IL-36γ in Biacore assays. The association time was set to 60 seconds, and the final dissociation time was set to 600 seconds. Equilibrium dissociation constant KD (kd/ka) of exemplary antibodies was determined using a 1:1 Langmuir fit model (see Tables 17-18 below).

human IL-36γ, truncated [9] = target: T3, human IL-36γ, truncated; assay: SPR, Biacore, 1:1 Langmuir fit
Method: as §1

[10] = target: T2, cynomolgus IL-36α, truncated; assay: SPR, Biacore, 1:1 Langmuir fit
Method: as §1

[11] = target: T4, cynomolgus IL-36γ, truncated; assay: SPR, Biacore, 1:1 Langmuir fit
Method: as §1

human IL-36γ, truncated [12] = target: T3, human IL-36γ, truncated; assay: cell-based or functional assay; remark: listed apart in the source
[13] = target: T1, human IL-36α(R12), truncated; assay: SPR, Biacore, 1:1 Langmuir fit; heads of c3 and c4 printed swapped
Method: as §1

human IL-36γ, truncated [14] = target: T3, human IL-36γ, truncated; assay: as above
Method: as §1

[15] = target: T2, cynomolgus IL-36α, truncated; assay: as above
Method: as §1

[16] = target: T4, cynomolgus IL-36γ, truncated; assay: as above
Method: as §1

[17] = target: T1, human IL-36α(R12), truncated; assay: SPR, Biacore T200, antibody on chip, IL-36 as analyte, 1:1 Langmuir fit
Method in brief: (§2)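 Single-cycle kinetics: mouse/human chimeric or mouse antibodies captured (~200 RU) via anti-human or anti-mouse Fc on CM5, then increasing IL-36 concentrations injected, 300 s association, 1200 s dissociation. Alternatively ~2000 RU antibody amine-coupled, analyte 30 μL/min for 420 s, 3600 s dissociation, 25° C; double-referenced sensorgrams.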

human IL-36γ, truncated [18] = target: T3, human IL-36γ, truncated; assay: as above
Method in brief: as §2

[19] = target: T1, human IL-36α(R12), truncated; assay: ELISA binding screen and HaCaT assay
[20] = target: T2, cynomolgus IL-36α, truncated; assay: ELISA binding screen and HaCaT assay
[21] = target: T4, cynomolgus IL-36γ, truncated; assay: ELISA binding screen and HaCaT assay

B1: 144D464A (antibody, V domains shown)
VH: EVQLQQSGAELVKPGASVRLSCTASGFNIKDTYIHWVKQRPEQGLEWIGRIDPAIGTTRYDPKFQGKATITTDTSSDTVHLQFSSLTSEDTAVYYCARLHYFGNNFFFDYWGQGTTLTVSS
VL: QAVVTQESALTTSPGEAVTLTCRSSSGAVTTSNYANWVQEKPDHLFAGLIGGTNDRAPGVPARFSGSLIGDKAALTITGAQTEDEAIYFCALWFSNHWVFGGGTKLTVL
notes: Mouse monoclonal from hybridoma; mouse IgG heavy and lambda light chain; also called mouse antibody 144D464A
[1]
  IC50 of IL-8 secretion, HaCaT, 10 nM human IL-36α, FIG. 1B: 6.49 nM
[2]
  IC50 of IL-8 secretion, HaCaT, 10 nM cynomolgus IL-36α, FIG. 2A: 5.3 nM
Human IL-36γ, truncated [3]
  IC50 of IL-8 secretion, HaCaT, 10 nM human IL-36γ, FIG. 1E: 7.39 nM
[4]
  IC50 of IL-8 secretion, HaCaT, 10 nM cynomolgus IL-36γ, FIG. 2C: 15.6 nM
[5]
  IC50 of IL-8 secretion, primary human keratinocytes, 8 nM human IL-36α, FIG. 4B: 13.4 nM
Human IL-36γ, truncated [6]
  IC50 of IL-8 secretion, primary human keratinocytes, 8.4 nM human IL-36γ, FIG. 4D: 13.3 nM
Human IL-36γ, truncated [7]
  IC50 of IL-8 secretion, primary human monocytes, 6 nM human IL-36γ, FIG. 5C: 13.2 nM
[8]
  Kd: 1.32 nM
Human IL-36γ, truncated [9]
  Kd: 0.877 nM
[10]
  Kd: 0.727 nM
[11]
  Kd: 0.865 nM
Human IL-36γ, truncated [12]
  IC50 (read off the curve): ~8 nM
[13]
  koff: 0.000362 s⁻¹
  kon: 274000 M⁻¹ s⁻¹
Human IL-36γ, truncated [14]
  koff: 0.00034 s⁻¹
  kon: 388000 M⁻¹ s⁻¹
[15]
  koff: 0.000338 s⁻¹
  kon: 465000 M⁻¹ s⁻¹
[16]
  koff: 0.000427 s⁻¹
  kon: 493000 M⁻¹ s⁻¹
[17]
  Kd: 2.53 nM
  koff: 0.000309 s⁻¹
  kon: 122000 M⁻¹ s⁻¹
Human IL-36γ, truncated [18]
  Kd: 3.81 nM
  koff: 0.00032 s⁻¹
  kon: 84000 M⁻¹ s⁻¹

B2: 144L472A (antibody, V domains shown)
VH: EVQLQQSGAELVKPGASVKLSCTVSGFNIKDTYMYWVKQRPEQGLEWIGRIDPANGYAKYDPKFQGKATLTADTSSNTAYLQLSSLTSEDTAVYFCARFHWYDSAFYFDFWGQGTTLTVSS
VL: QAVVTQESALTTSPGETVTLTCRSSSGAVTTSNYANWVQEKPDHLFTGLIGGTNNRAPGVPARFSGSLIGDKAALTITGAQTEDEAIYFCGLWYSNHWVFGGGTKLTVL
notes: Mouse monoclonal from hybridoma; mouse IgG heavy and lambda light chain
[2]
  IC50 of IL-8 secretion, HaCaT, 10 nM cynomolgus IL-36α, FIG. 2B: 63.2 nM
Human IL-36γ, truncated [3]
  IC50 of IL-8 secretion, HaCaT, 10 nM human IL-36γ, FIG. 1F: 11.9 nM
[4]
  IC50 of IL-8 secretion, HaCaT, 10 nM cynomolgus IL-36γ, FIG. 2D: 17.1 nM
Human IL-36γ, truncated [7]
  IC50 of IL-8 secretion, primary human monocytes, 6 nM human IL-36γ, FIG. 5C: 15.7 nM
  IC50 of IL-8 secretion, primary human monocytes, 50 nM human IL-36γ, FIG. 5D: 40 nM
[19]
  binding result: binds
Human IL-36γ, truncated [18]
  Kd: 1000 nM
  koff: 0.00208 s⁻¹
  kon: 2070 M⁻¹ s⁻¹

B3: 144D666C (antibody, V domains shown)
VH: EVQLQQSGAELVKPGASVKLTCTASGFNIKDTYIYWVKQRPAQGLEWIGRIDPANAYTKFDPKFQGKATLTADTSSNTAYLQLSSLTSEDTAVYYCTRFHWYGSSFFFDYWGQGTTLTVSS
VL: QAVVTQESALTTSPGETVTLTCRSSTGAVTTSNYANWVQEKPDHLFTGLIGGTDNRPPGVPARFSGSLIGDKAALTITGAQTEDEAIYFCALWYSNLWVFGGGTKLTVL
notes: as for B2
[1]
  IC50 of IL-8 secretion, HaCaT, 10 nM human IL-36α, FIG. 1A: 49.5 nM
Human IL-36γ, truncated [3]
  IC50 of IL-8 secretion, HaCaT, 10 nM human IL-36γ, FIG. 1D: 5.12 nM
[20]
  binding result: binds
[21]
  binding result: binds
[17]
  Kd: 18 nM
  koff: 0.00184 s⁻¹
  kon: 102000 M⁻¹ s⁻¹
Human IL-36γ, truncated [18]
  Kd: 1.08 nM
  koff: 0.000676 s⁻¹
  kon: 625000 M⁻¹ s⁻¹
